Test [1] addresses LGTV NS2B/3pro_E117A (Langat virus) (UniProt P29837). Kind of test: pull-down.
Test [2] addresses LGTV NS2B/3pro_D19A_E117A (Langat virus) (UniProt P29837). Briefly: pull-down.

We go through one substance from article PMC6536497.

As to “GFP-tagged TRAF6 (TRAF6-GFP) (from UniProt Q9Y4K3 1-522) (natural protein)”, the values for the percent decrease in pull down of TRAF6 relative to NS2B/3pro WT (densitometry) in test [1] and in test [2] were 56.1% and 58.6%, respectively.
